From paper PMC2063517, “Leptospira interrogans Endostatin-Like Outer Membrane Proteins Bind Host Fibronectin, Laminin and Regulators of Complement” (PLoS ONE, 2007)

Experiments:
[1] = molecular target: murine laminin (murine); test: ELISA; 1 µg murine laminin immobilised in microtiter wells, soluble LenA or LenB added in PBS-based binding buffer, detected by anti-polyhistidine; Kd = concentration of Len protein giving half-maximal binding; in some experiments additional NaCl or porcine heparin in the buffer (heparin also preincubated with laminin)
[2] = molecular target: murine laminin (murine); test: ELISA; data not shown: laminin immobilised, 1 µM LenB with 1 µM or 4 µM heparin in the binding buffer
[3] = molecular target: 30-kDa amino-terminal domain of fibronectin (human); test: ELISA; human plasma fibronectin or its proteolytic fragments (70 kDa, 30 kDa NTD, 45 kDa GBD) immobilised in wells, soluble LenA or LenB added, detected by anti-polyhistidine; Kd = concentration of Len protein giving half-maximal binding
[4] = molecular target: human plasma fibronectin (intact) (human); test: as above; conditions: both partners purified

Work on “recombinant LenA (leptospiral endostatin-like protein A), L. interrogans serovar Lai (from UniProt Q8F863 1-240) (natural protein)” yielded a binding of 1 µM LenA with 1 µM heparin, percent of the no-heparin control [1] of 26%, a percent reduction of binding at 200 mM NaCl against 150 mM NaCl [1] of 49% and a percent reduction of binding at 500 mM NaCl against 150 mM NaCl [1] of 60%.

With “recombinant LenB, L. interrogans serovar Bratislava (from UniProt A8SKK5 1-236) (natural protein)” the binding of 1 µM LenB with 1 µM heparin, percent of the no-heparin control [2] was 75%, the binding of 1 µM LenB with 4 µM heparin, percent of the no-heparin control [2] was 55% and the Kd [3] was 69.5 nM. The Kd [1] was 118 nM, the binding of 0.25 µM LenB with 50 µM heparin (laminin preincubated with 50 µM heparin), percent of the no-heparin control [1] was 25% and the percent inhibition of binding at 200 mM NaCl against 150 mM NaCl [1] was 40%. For the same molecule, the percent inhibition of binding at 500 mM NaCl against 150 mM NaCl [1] was 79%.

B1: recombinant LenB, L. interrogans serovar Bratislava (natural protein)
chain: MFKNIFLIFLTGSVVCILWSCGDKKEEDNSDLLLFLLNSLGSSNSAASTVVTSCKDASFCRTFVATNNGAGYDGNLGGISGADAKCAAAKSSNLTGTYKALLAAMGTREAVFVGDGSTRLVDWVLYPNKQYRRSDGTTTTFTTNANSVVTANLQNSVDVGAEKFYWIGVGNQPATFDWEVSLNCNDWNSNNAVNFAIDGTTSSNEVFAGDGATPGGAFGSHNTGCNIRLNLLCVEQ
notes: Made with the vector pET200 (Invitrogen); source: E. coli, inclusion bodies, purified in 8M urea (MagneHis nickel beads), dialyzed against PBS; dissolved into PBS after 2-3 days at 4°C
Molecule B1 has a Kd [4] of 106 nM.
